Reference: patent publication US20170290876A1 (Novartis, published 2017)

B1: NVS4 light chain variant I28K (Fab, V domains shown)
VH: EVQLVESGGGLVQPGGSLRLSCTASGFSLTDYYYMTWVRQAPGKGLEWVGFIDPDDDPYYATWAKGRFTISRDNSKNTLYLQMNSLRAEDTAVYYCAGGDHNSGWGLDIWGQGTLVTVSS
VL: EIVMTQSPSTLSASVGDRVIITCQASEKIHSWLAWYQQKPGKAPKLLIYLASTLASGVPSRFSGSGSGAEFTLTISSLQPDDFATYYCQNVYLASTNGANFGQGTKLTVLK
notes: CDR variant of NVS4
B2: LC3T (Fab, V domains shown)
VH: EVQLVESGGGLVQPGGSLRLSCTASGFSLTDYYYMTWVRQAPGKGLEWVGFIDPDDDPYYATWAKGRFTISRDNSKNTLYLQMNSLRAEDTAVYYCAGGDHNSGWGLDIWGQGTLVTVSS
VL: EIVMTQSPSTLSASVGDRVIITCQASQKIHSWLAWYQQKPGKAPKLLIYQASKLAKGVPSRFSGSGSGAEFTLTISSLQPDDFATYYCQNVYLASRNGANFGQGTKLTVLK
notes: Light chain CDR variant LC3 with tagged NVS4 heavy chain
B3: HC1.1T (Fab, V domains shown)
VH: EVQLVESGGGLVQPGGSLRLSCTASGFSLTSYYYMTWVRQAPGKGLEWVGFIDPQNNPYYATWAKGRFTISRDNSKNTLYLQMNSLRAEDTAVYYCAGGDHNSGWGLNIWGQGTLVTVSS
VL: EIVMTQSPSTLSASVGDRVIITCQASEIIHSWLAWYQQKPGKAPKLLIYLASTLASGVPSRFSGSGSGAEFTLTISSLQPDDFATYYCQNVYLASTNGANFGQGTKLTVLK
notes: Tagged heavy chain CDR variant HC1.1 with NVS4 light chain
B4: NVS4 light chain variant T96R (Fab, V domains shown)
VH: EVQLVESGGGLVQPGGSLRLSCTASGFSLTDYYYMTWVRQAPGKGLEWVGFIDPDDDPYYATWAKGRFTISRDNSKNTLYLQMNSLRAEDTAVYYCAGGDHNSGWGLDIWGQGTLVTVSS
VL: EIVMTQSPSTLSASVGDRVIITCQASEIIHSWLAWYQQKPGKAPKLLIYLASTLASGVPSRFSGSGSGAEFTLTISSLQPDDFATYYCQNVYLASRNGANFGQGTKLTVLK
notes: CDR variant of NVS4
B5: LC1T (Fab, V domains shown)
VH: EVQLVESGGGLVQPGGSLRLSCTASGFSLTDYYYMTWVRQAPGKGLEWVGFIDPDDDPYYATWAKGRFTISRDNSKNTLYLQMNSLRAEDTAVYYCAGGDHNSGWGLDIWGQGTLVTVSS
VL: EIVMTQSPSTLSASVGDRVIITCQASQIIHSWLAWYQQKPGKAPKLLIYQASTLAKGVPSRFSGSGSGAEFTLTISSLQPDDFATYYCQNVYLASTNGANFGQGTKLTVLK
notes: Light chain CDR variant LC1 of NVS4 with tagged NVS4 heavy chain
B6: NVS4 light chain variant Y92F (Fab, V domains shown)
VH: EVQLVESGGGLVQPGGSLRLSCTASGFSLTDYYYMTWVRQAPGKGLEWVGFIDPDDDPYYATWAKGRFTISRDNSKNTLYLQMNSLRAEDTAVYYCAGGDHNSGWGLDIWGQGTLVTVSS
VL: EIVMTQSPSTLSASVGDRVIITCQASEIIHSWLAWYQQKPGKAPKLLIYLASTLASGVPSRFSGSGSGAEFTLTISSLQPDDFATYYCQNVFLASTNGANFGQGTKLTVLK
notes: CDR variant of NVS4
B7: HC8T (Fab, V domains shown)
VH: EVQLVESGGGLVQPGGSLRLSCTASGFSLTKYYYMTWVRQAPGKGLEWVGFIKPDKKPKYATWAKGRFTISRDNSKNTLYLQMNSLRAEDTAVYYCAGGDHNSGWGLDIWGQGTLVTVSS
VL: EIVMTQSPSTLSASVGDRVIITCQASEIIHSWLAWYQQKPGKAPKLLIYLASTLASGVPSRFSGSGSGAEFTLTISSLQPDDFATYYCQNVYLASTNGANFGQGTKLTVLK
notes: Tagged heavy chain CDR variant HC8 with NVS4 light chain
B8: HC7T (Fab, V domains shown)
VH: EVQLVESGGGLVQPGGSLRLSCTASGFSLTKYYYMTWVRQAPGKGLEWVGFIKPKDKPYKATWAKGRFTISRDNSKNTLYLQMNSLRAEDTAVYYCAGGDHNSGWGLDIWGQGTLVTVSS
VL: EIVMTQSPSTLSASVGDRVIITCQASEIIHSWLAWYQQKPGKAPKLLIYLASTLASGVPSRFSGSGSGAEFTLTISSLQPDDFATYYCQNVYLASTNGANFGQGTKLTVLK
notes: Tagged heavy chain CDR variant HC7 with NVS4 light chain
B9: HC2T (Fab, V domains shown)
VH: EVQLVESGGGLVQPGGSLRLSCTASGFSLTNYYYMTWVRQAPGKGLEWVGFIDPQNDPYYATWAKGRFTISRDNSKNTLYLQMNSLRAEDTAVYYCAGGNHNSGWGLDIWGQGTLVTVSS
VL: EIVMTQSPSTLSASVGDRVIITCQASEIIHSWLAWYQQKPGKAPKLLIYLASTLASGVPSRFSGSGSGAEFTLTISSLQPDDFATYYCQNVYLASTNGANFGQGTKLTVLK
notes: Tagged heavy chain CDR variant HC2 with NVS4 light chain
B10: HC1.2T (Fab, V domains shown)
VH: EVQLVESGGGLVQPGGSLRLSCTASGFSLTSYYYMTWVRQAPGKGLEWVGFIDPQNNPYYATWAKGRFTISRDNSKNTLYLQMNSLRAEDTAVYYCAGGDHNSGWGLDIWGQGTLVTVSS
VL: EIVMTQSPSTLSASVGDRVIITCQASEIIHSWLAWYQQKPGKAPKLLIYLASTLASGVPSRFSGSGSGAEFTLTISSLQPDDFATYYCQNVYLASTNGANFGQGTKLTVLK
notes: Tagged heavy chain CDR variant HC1.2 with NVS4 light chain
B11: HC1T (Fab, V domains shown)
VH: EVQLVESGGGLVQPGGSLRLSCTASGFSLTSYYYMTWVRQAPGKGLEWVGFIDPQNNPYYATWAKGRFTISRDNSKNTLYLQMNSLRAEDTAVYYCAGGSHNSGWGLNIWGQGTLVTVSS
VL: EIVMTQSPSTLSASVGDRVIITCQASEIIHSWLAWYQQKPGKAPKLLIYLASTLASGVPSRFSGSGSGAEFTLTISSLQPDDFATYYCQNVYLASTNGANFGQGTKLTVLK
notes: Tagged heavy chain CDR variant HC1 with NVS4 light chain
B12: HC3T (Fab, V domains shown)
VH: EVQLVESGGGLVQPGGSLRLSCTASGFSLTNYYYMTWVRQAPGKGLEWVGFIDPQNNPYYATWAKGRFTISRDNSKNTLYLQMNSLRAEDTAVYYCAGGNHNSGWGLDIWGQGTLVTVSS
VL: EIVMTQSPSTLSASVGDRVIITCQASEIIHSWLAWYQQKPGKAPKLLIYLASTLASGVPSRFSGSGSGAEFTLTISSLQPDDFATYYCQNVYLASTNGANFGQGTKLTVLK
notes: Tagged heavy chain CDR variant HC3 with NVS4 light chain
B13: LC2T (Fab, V domains shown)
VH: EVQLVESGGGLVQPGGSLRLSCTASGFSLTDYYYMTWVRQAPGKGLEWVGFIDPDDDPYYATWAKGRFTISRDNSKNTLYLQMNSLRAEDTAVYYCAGGDHNSGWGLDIWGQGTLVTVSS
VL: EIVMTQSPSTLSASVGDRVIITCQASQKIHSWLAWYQQKPGKAPKLLIYQASKLAKGVPSRFSGSGSGAEFTLTISSLQPDDFATYYCQNVYLASTNGANFGQGTKLTVLK
notes: Light chain CDR variant LC2 with tagged NVS4 heavy chain
B14: LC5T (Fab, V domains shown)
VH: EVQLVESGGGLVQPGGSLRLSCTASGFSLTDYYYMTWVRQAPGKGLEWVGFIDPDDDPYYATWAKGRFTISRDNSKNTLYLQMNSLRAEDTAVYYCAGGDHNSGWGLDIWGQGTLVTVSS
VL: EIVMTQSPSTLSASVGDRVIITCQASQIIKSWLAWYQQKPGKAPKLLIYQASTLAKGVPSRFSGSGSGAEFTLTISSLQPDDFATYYCQNVYLASTNGANFGQGTKLTVLK
notes: Light chain CDR variant LC5 with tagged NVS4 heavy chain
B15: LC4T (Fab, V domains shown)
VH: EVQLVESGGGLVQPGGSLRLSCTASGFSLTDYYYMTWVRQAPGKGLEWVGFIDPDDDPYYATWAKGRFTISRDNSKNTLYLQMNSLRAEDTAVYYCAGGDHNSGWGLDIWGQGTLVTVSS
VL: EIVMTQSPSTLSASVGDRVIITCQASQKIHSWLAWYQQKPGKAPKLLIYQASTLAKGVPSRFSGSGSGAEFTLTISSLQPDDFATYYCQNVYLASTNGANFGQGTKLTVLK
notes: Light chain CDR variant LC4 with tagged NVS4 heavy chain
B16: HC4T (Fab, V domains shown)
VH: EVQLVESGGGLVQPGGSLRLSCTASGFSLTNYYYMTWVRQAPGKGLEWVGFIDPQNDPYYATWAKGRFTISRDNSKNTLYLQMNSLRAEDTAVYYCAGGNHNSGWGLNIWGQGTLVTVSS
VL: EIVMTQSPSTLSASVGDRVIITCQASEIIHSWLAWYQQKPGKAPKLLIYLASTLASGVPSRFSGSGSGAEFTLTISSLQPDDFATYYCQNVYLASTNGANFGQGTKLTVLK
notes: Tagged heavy chain CDR variant HC4 with NVS4 light chain
B17: HC6T (Fab, V domains shown)
VH: EVQLVESGGGLVQPGGSLRLSCTASGFSLTNYYYMTWVRQAPGKGLEWVGFIDPQNQPYYATWAKGRFTISRDNSKNTLYLQMNSLRAEDTAVYYCAGGNHNSGWGLNIWGQGTLVTVSS
VL: EIVMTQSPSTLSASVGDRVIITCQASEIIHSWLAWYQQKPGKAPKLLIYLASTLASGVPSRFSGSGSGAEFTLTISSLQPDDFATYYCQNVYLASTNGANFGQGTKLTVLK
notes: Tagged heavy chain CDR variant HC6 with NVS4 light chain
B18: NVS4 light chain variant S95K (Fab, V domains shown)
VH: EVQLVESGGGLVQPGGSLRLSCTASGFSLTDYYYMTWVRQAPGKGLEWVGFIDPDDDPYYATWAKGRFTISRDNSKNTLYLQMNSLRAEDTAVYYCAGGDHNSGWGLDIWGQGTLVTVSS
VL: EIVMTQSPSTLSASVGDRVIITCQASEIIHSWLAWYQQKPGKAPKLLIYLASTLASGVPSRFSGSGSGAEFTLTISSLQPDDFATYYCQNVYLAKTNGANFGQGTKLTVLK
notes: CDR variant of NVS4
B19: NVS4 light chain variant T53K (Fab, V domains shown)
VH: EVQLVESGGGLVQPGGSLRLSCTASGFSLTDYYYMTWVRQAPGKGLEWVGFIDPDDDPYYATWAKGRFTISRDNSKNTLYLQMNSLRAEDTAVYYCAGGDHNSGWGLDIWGQGTLVTVSS
VL: EIVMTQSPSTLSASVGDRVIITCQASEIIHSWLAWYQQKPGKAPKLLIYLASKLASGVPSRFSGSGSGAEFTLTISSLQPDDFATYYCQNVYLASTNGANFGQGTKLTVLK
notes: CDR variant of NVS4

Target: T1, human VEGF (human, UniProt P15692 207-395, biotinylated (site not stated))
T1 construct: Biotinylated human VEGF generated internally; also called hVEGF; hVEGF-biotin
T1 sequence: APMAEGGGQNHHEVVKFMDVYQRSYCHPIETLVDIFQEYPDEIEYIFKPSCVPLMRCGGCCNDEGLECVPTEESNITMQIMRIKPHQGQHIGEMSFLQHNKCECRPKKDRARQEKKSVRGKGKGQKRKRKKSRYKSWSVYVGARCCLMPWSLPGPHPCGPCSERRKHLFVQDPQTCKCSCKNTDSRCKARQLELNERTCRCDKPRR
Assay: Biacore SPR, hVEGF

Binder	Kd [pM]	koff [s⁻¹]	kon [M⁻¹ s⁻¹]
B1	5.34	3e-05	5.62e+06
B2	1.2	0.00016	1.34e+08
B3	77.9	0.00854	1.1e+08
B4	2.44	1.37e-05	5.6e+06
B5	1.23	7.3e-05	5.95e+07
B6	41.5	7.84e-05	1.89e+06
B7	948	0.0026	2.74e+06
B8	554	0.186	3.37e+08
B9	11.1	0.000862	7.8e+07
B10	41.4	0.00456	1.1e+08
B11	88.3	0.00852	9.65e+07
B12	80	0.00898	1.12e+08
B13	1.33	0.000109	8.18e+07
B14	4.35	0.000588	1.35e+08
B15	1.49	0.000135	9.1e+07
B16	9.93	0.000912	9.18e+07
B17	49.9	0.00624	1.25e+08
B18	81.9	0.000482	5.88e+06
B19	2.82	1.3e-05	4.6e+06
